Test results taken from publication PMC4117571.

System: hnRNP A1 (endogenous) ((SF268 cells))
Assay: pull-down, competition, immunoblot
Conditions: biotin-16-UTP incorporated; 5 mM HEPES pH 7.1, 40 mM KCl, 0.1 mM EDTA, 2 mM MgCl2, 2 mM DTT, RNasin, 0.25 mg/ml heparin; 200 ug SF268 extract, 3 ug RNA, 100 ul; 15 min 30 C, then beads …

Substance | binding signal (% reduction of bound hnRNP A1)
EV71 5'UTR | 73
EV71 SL-II | 80
